Sequences and labels used below:
B1: TPR t1 (parent)
chain: GACCAAUCUGCCCUCAGAGCUCGAGAACAUCUUCGGAUGCAGAGGAGGCAGGCUUCGGUGGCGCGAUAGCGCCAACGUCCUCAACCUCCAAUGCAUCCCACCACAUGAUGAUGCCUGAAGAGCCUUGGUUUUUUG

Data on 83 variants can be found in the RNAGym collection of RNA variant scans (doi:10.1073/pnas.2313332121).

The variants in this data set derive from B1. Description: polymerase ribozyme fitness, log enrichment relative to wild type (log ratio); higher = more active; in vitro selection for triplet polymerase activity. Put shortly: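 To select mutant libraries of each subunit of a heterodimeric triplet polymerase ribozyme, built by PCR and transcribed, each was annealed with a biotinylated primer, partner subunit and triplets, then incubated frozen at −7 °C. Extended constructs were gel-excised, captured on streptavidin beads and amplified by RT-PCR, in one round carried out in triplicate. Illumina sequencing of input and output libraries kept genotypes with ≥10 input reads and ≥1 read per output. Fitness is the base-2 logarithm of genotype enrichment relative to wild-type enrichment, from inverse-variance-weighted replicate averages.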
For the variant A5C G47U G48C G71A C102A, the “polymerase ribozyme fitness (log ratio)” value is -6.35. Consider A5C G47A A66G, for which the “polymerase ribozyme fitness (log ratio)” value was -3.08. On to A5G U78A G120C, for which the “polymerase ribozyme fitness (log ratio)” value is 0.799.

As to A5C C8A A37C G42U C104U, the “polymerase ribozyme fitness (log ratio)” value was -2.13. As for A5U G69C, the “polymerase ribozyme fitness (log ratio)” value is -2.22.

As to A5C U7C A74C A90U, the “polymerase ribozyme fitness (log ratio)” value is -1.47.

A6G A24G G36U C49A: the “polymerase ribozyme fitness (log ratio)” value is -3.79. Regarding A5G C85U G113U G122U, the “polymerase ribozyme fitness (log ratio)” value was -3.92. As to A6G C8G G10U C76A G117C C124A, the “polymerase ribozyme fitness (log ratio)” value was -2.05. Under A6C C73G G93U G128U stands -5.16. With A5C C8G C40U U112G U133G, the “polymerase ribozyme fitness (log ratio)” value is -0.864. For A6G C97U U112A the value was 1.48; for A5U G51A G113A C124A, -3.34; for A5G G61C C104A, -2.73. On to A5G G36A C53G C73U C80A C82G, for which the “polymerase ribozyme fitness (log ratio)” value is -1.5. Under A5U C11A C115G stands -6.5; under A6G C12A G117A, -2.34. As to A5U C13U A37U G44C U78G C98U, the “polymerase ribozyme fitness (log ratio)” value is -4.45. As for A5U G44C, the “polymerase ribozyme fitness (log ratio)” value was -1.05. For A6C C53G G57A C73A C79G G113C the value was -4.89; for A6G C49G G51U C73G U133A, -2.49.

Regarding A5U C70G A119G, the “polymerase ribozyme fitness (log ratio)” value is -0.737. For A5U G47U, the “polymerase ribozyme fitness (log ratio)” value was -1.29. Under A5U C64U C80A C88U A95U stands -4.14; under A6G A66U C73G A75U C80U G120U U129G, -4.99; under A5U C56U A91C U112G, -1.59. With A6C C15G U55G C94G C124G G127A, the “polymerase ribozyme fitness (log ratio)” value was -3.17. Consider C4U G52A C114A, for which the “polymerase ribozyme fitness (log ratio)” value was -2.66.

As to A5U C73U G122A U129A, the “polymerase ribozyme fitness (log ratio)” value is -2.07. As for A5U G44A C56A C124A G128U U132G U133C, the “polymerase ribozyme fitness (log ratio)” value is -2.5. A6C U9A C15G G45A C104A C124G: the “polymerase ribozyme fitness (log ratio)” value is -3.65. On to A5U C13U U21C C88U G120U, for which the “polymerase ribozyme fitness (log ratio)” value is -0.379. Turning to A5G U54G C88A, the “polymerase ribozyme fitness (log ratio)” value is -0.448. Under A6G C12A A50G G120A stands 2.01.

As for A6C G35A, the “polymerase ribozyme fitness (log ratio)” value was -4.12. Regarding A5C C115U G120A G122A U134G, the “polymerase ribozyme fitness (log ratio)” value is -4.36. For the variant A5U G117C, the “polymerase ribozyme fitness (log ratio)” value was -2.92. Under A5G C13A G61A stands -1.98. For the variant A5G U54G G69U, the “polymerase ribozyme fitness (log ratio)” value is -0.999.

Consider C4U G44U C53U C86G, for which the “polymerase ribozyme fitness (log ratio)” value is -3.52. Under A6C C40U G44A A121U stands 0.36; under C4U G48C G61U C98U U112C, -0.785; under A5G G57U A100U, -1.5. On to A5U U131A, for which the “polymerase ribozyme fitness (log ratio)” value is -2.48. For C4U G44U G61A C80G C89G C114U U131G the value was -7.14; for A5C G60A C101U, -0.437; for A5G G52C C70G C82U, -3.85. In the case of A5G C114G, the “polymerase ribozyme fitness (log ratio)” value is -2.13. For A6C G77A the value was -0.571. Take A5U C40A: the “polymerase ribozyme fitness (log ratio)” value was -2.19.

Regarding A5U C56G A74U G110A U116G C124G G135U, the “polymerase ribozyme fitness (log ratio)” value was -6.08. As for A5G A26U U32C, the “polymerase ribozyme fitness (log ratio)” value is -2.95.

As for A5U A26G, the “polymerase ribozyme fitness (log ratio)” value is -2.87. Regarding A5G C12A U132A U133A, the “polymerase ribozyme fitness (log ratio)” value is -1.41. Regarding C4U G47A C56U C73U C101U A119G G120U G127A, the “polymerase ribozyme fitness (log ratio)” value is -0.428. Under A6G A121C stands 2.2; under A5U C102A, -2.01; under A6G C12U, -0.282.

As for A5C A24U, the “polymerase ribozyme fitness (log ratio)” value was -5.29. Take A5U C12U A18G C80U C114U: the “polymerase ribozyme fitness (log ratio)” value is -4.01. A5C G48A C82G: the “polymerase ribozyme fitness (log ratio)” value is -1.18. Under C4U G19A C56G U106A C123G stands -3.72; under A6C C70U C73G, -2.81.

Consider A5U U7G G47A C72A, for which the “polymerase ribozyme fitness (log ratio)” value was -0.365. As to A5U G110A, the “polymerase ribozyme fitness (log ratio)” value was -1.

Regarding A5C C98U U112A G128C, the “polymerase ribozyme fitness (log ratio)” value was -4.48.

A5C C15G U54G C89U U116G G117A C124G: the “polymerase ribozyme fitness (log ratio)” value turned out to be 0.693. With A5C C22A, the “polymerase ribozyme fitness (log ratio)” value is -4.57.

Take A5U G51U: the “polymerase ribozyme fitness (log ratio)” value is -3.03. Take A5U U7A C40G U55G C56U G60A U130C: the “polymerase ribozyme fitness (log ratio)” value is -1.94. For C4U G63A the value was -1.64. For A6G A37U C72A C73U G117U C124A, the “polymerase ribozyme fitness (log ratio)” value was -0.937. Under A5G G60A stands -0.271. With A5U C11U G63C C80A A105C G113U, the “polymerase ribozyme fitness (log ratio)” value is -5.39. As to A6C C88G C115G, the “polymerase ribozyme fitness (log ratio)” value was -4.52.

As for A5C A118U U133A, the “polymerase ribozyme fitness (log ratio)” value is -1.14. In the case of A5C G48A, the “polymerase ribozyme fitness (log ratio)” value is -1.85. For A5G G48U G69A C89U C98U A121G the value was -3.81; for A6G C8G U30C A41G G60U, -3.67.

A5U A29G A46G C82G G120A: the “polymerase ribozyme fitness (log ratio)” value was -1.34. Take A6G C49U G60C G135U: the “polymerase ribozyme fitness (log ratio)” value was -2.21. C4U G48U G93A: the “polymerase ribozyme fitness (log ratio)” value was -2.39. For A5U C13G C53G A118U the value was -2.18.
